Measurements as given in the supplement of paper PMC12042874.
± gives the uncertainty stated by the source.

test: amyloid nucleation score (Sup35N fusion, yeast selection) (log enrichment); library NNK3; higher = more nucleation; inactive = no reads after selection
Procedure, shortened: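 The nucleation score is the log enrichment of output over input reads, calculated with DiMSum and centred on the mode score of non-aggregating sequences. Sequences with under 100 input reads were excluded. Reads came from Illumina sequencing of plasmid inserts from psi-negative yeast expressing Sup35N fused to peptides of 20 random codons, induced 24 hours with 100 μM copper sulfate and grown 7 days at 30°C without adenine and uracil.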

| Substance | amyloid nucleation score |
| --- | --- |
| KVFMGRCCWLCSPY | 1.42 ± 0.1 |
| KVGTVLWCFTCSAGHRECNG | 2.75 ± 0.055 |
| KVILPWKLWADGWRDY | inactive |
| KVRRGQLKIRS | inactive |
| KVSDKPHHKRGVGLDLMMMD | inactive |
| KVTFKYLLKSVSLGQGTT | 0.341 ± 0.28 |
| KWCKKKQFKSLDWLTYDI | inactive |
| KWKVAKVGDWQAAPTLGSHR | inactive |
| KWLMNSNFAWLI | inactive |
| KYEMTIPSSVLRALSNKHWL | -0.539 ± 1.4 |
| KYITHLFFFILSERYCWFPM | -0.341 ± 0.56 |
| KYKLTLYDNAVSGGDALHLR | inactive |
| KYLAFLQLCGAPMYLWTPPI | 0.757 ± 0.3 |
| KYLGG | inactive |
| KYNAIVLVYPKSADCVKTLM | 0.387 ± 0.36 |
| KYQLPRDNFS | inactive |
| KYSMTK | inactive |
| KYVVQPYGSCRWGLITVRAN | inactive |
| KYWDPQFP | inactive |
| LADFRGQSLTDEGCMWTSSG | inactive |
| LAITLRLLFVNIIFTDPDLY | inactive |
| LALCSTCFNLVYIICVGKKW | inactive |
| LAMHIALDSNRDKAFGVLNE | inactive |
| LARQFF | inactive |

| Substance | amyloid nucleation score |
| --- | --- |
| LASLTRLLDFMMSVENTYSA | inactive |
| LAVFFDRD | inactive |
| LAVFSEARNEGTTQFYYLLK | inactive |
| LCALTS | inactive |
| LCDFSLGGYSGNCYIFKMSV | 0.739 ± 0.28 |
| LCETCKNVARIYSFLIGMTD | inactive |
| LCGLERLKVMQWHSVPRKHI | inactive |
| LCGPSDLAT | 0.096 ± 0.66 |
| LCLFGLLYNIETFSIVVDYS | inactive |
| LCMAFNVIPQTSFLALKASC | inactive |
| LCRLLVSTWNSASSFFCRKL | inactive |
| LCRYRNSYICSGNIIWMCSL | inactive |
| LCTCTLCSLYV | inactive |
| LCVRFARMSGSAHLVESYVD | inactive |
| LCVRYDMSEGLRKGWWYGVG | inactive |
| LDCFCSPVKVTWH | 0.146 ± 0.21 |
| LDGMYHTVRICNSCF | inactive |
| LDGQFNNLYMYPSFYQEVAG | inactive |
| LDLDSNRFKVDLNDLYELVV | inactive |
| LDLSSYVHSTLEPGQWKRSR | inactive |
| LDMFHSEIIFLMWYRGWVNA | inactive |
| LDTLLVYHFRKERVLNTGVN | inactive |
| LDTSNMPTYGLKSEVSVIAR | inactive |
| LDVMTCNRLKVTVDFMCMNA | inactive |

| Substance | amyloid nucleation score |
| --- | --- |
| LEESFSKNLSKSFYIQ | inactive |
| LEFVY | 0.238 ± 0.52 |
| LEGGSITCLSPC | inactive |
| LELRYCLFADPMI | inactive |
| LELVYGKIYSDPSTFRGHLV | inactive |
| LETMN | inactive |
| LETNG | inactive |
| LEWERPS | inactive |
| LFASWEDFLASSRYWRLEKR | 0.356 ± 0.39 |
| LFCLKIKLEAERRYLQGLRH | 1.72 ± 0.09 |
| LFCRVWSFGVLMCFE | inactive |
| LFDFADSMVRQVRTDAKRLN | inactive |
| LFEPVIEILI | inactive |
| LFEWMRCMTVFMVGAAYAAT | inactive |
| LFILFSNGYTVGYNSDNRSF | 0.601 ± 0.22 |
| LFITSHREGDWWLSTVRIHF | 0.367 ± 0.27 |
| LFLDWALIFLV | inactive |
| LFLFESQTCDSRVQNCISFG | inactive |
| LFLGLIVVGTVLNELSMTNA | inactive |
| LFLVYGGYIFAQRKFAFNSS | inactive |
| LFMCMIFDCDIRIVNSVGCI | 1.43 ± 0.14 |
| LFNYLFLVP | inactive |
| LFPYMDCNSGTELFYGFIVQ | inactive |
| LFSMEKGEYGNRRGYAVYFL | 1.74 ± 0.084 |

| Substance | amyloid nucleation score |
| --- | --- |
| LFSNTRVSSGYRSRLLSRCL | inactive |
| LFSQAHGYRDVLGGFRVFWV | inactive |
| LFSSRYDLIDVNVRGVDYSQ | inactive |
| LFTSFYVSPYM | inactive |
| LFVIHAGMNSTSFFKNMMSC | inactive |
| LFVIYISDIAPTGYQVQNDI | inactive |
| LFVKMR | -0.219 ± 0.32 |
| LFVMGRFVSFALFTWKTDNV | inactive |
| LFYGHVNLASYRVSNRSKTR | inactive |
| LGCSVTTVSV | inactive |
| LGDALAEVNQDHADSGYRVT | inactive |
| LGDDVFSLAFGDNFKDHKFH | inactive |
| LGESMRRVKVSVQIRIHMGQ | 1.11 ± 0.16 |
| LGFFCVIFVS | inactive |
| LGGTSNLMFGYMK | inactive |
| LGHGFWQFSYLG | inactive |
| LGIGVKYSTGWCFVIMSSAM | inactive |
| LGMSYVYTTGLQKQAASQ | inactive |
| LGNIGVELVDRCDRYIYQPD | 0.627 ± 0.2 |
| LGNSPVHST | inactive |
| LGRCFVFMRTVCFDSA | inactive |
| LGSAGYSSQGLWCLVLRVPL | inactive |
| LGSGEATE | inactive |
| LGVGMQRYMSWRRK | 0.504 ± 0.29 |

| Substance | amyloid nucleation score |
| --- | --- |
| LGWLLVTNWTSTYAGSLHDG | inactive |
| LGYISFGFPVEDNWVHLACD | inactive |
| LHDNRHYGNLTEAL | inactive |
| LHFVVFAYYKRLMDSQIC | inactive |
| LHGWFLNLLIFYAMRLRSVL | inactive |
| LHLNGAYMAFLIVMSCMHFS | inactive |
| LHVFSECRFIRSLLGPNGIF | inactive |
| LHYMYTYFTTKVLSSRIGGV | inactive |
| LIACSHSRNT | inactive |
| LICAW | inactive |
| LIFGYPVGKFTMMGLTSMWS | inactive |
| LIFPWDLRKGAHHPGLRSCI | inactive |
| LIIGHVFGFHGYVDWDDGTC | inactive |
| LIKVTS | inactive |
| LIKWFSFRWLVTILVIDQTY | inactive |
| LINAYQLLFQNHQKEMMFVT | inactive |
| LINNSEASLIHYIYGRGNVQ | -0.664 ± 1.9 |
| LISCAMGRELTYRSNSRRGR | inactive |
| LITEGYAYFLNWVFRYISYW | inactive |
| LIVAFSLASLGLKFSQCSWA | -0.363 ± 0.96 |
| LIVRLDPIFKKIKNK | 1.27 ± 0.11 |
| LIYANEYA | inactive |
